Results reported in US7592307B2, “Releasable linkage and compositions containing same” (Alza Corporation, priority 1999, dated 2009).

Columns and labels:
[1] = Blood lysozyme concentration after intravenous or subcutaneous administration; type: in vivo; conditions: rats
Procedure: The mPEG12000-MeDTB-lysozyme conjugates were administered in vivo to rats to characterize the in vivo behavior of the conjugate and its ability to cleave under physiologic conditions. In a first study, nine rats were divided into three test groups for administration of PEG-lysozyme, PEG-MeDTB-lysozyme, or free lysozyme. The test compound was administered intravenously or subcutaneously and blood samples were taken at defined times for analysis of blood lysozyme concentration.

[2] = Thiolytic cleavage of PEG-lysozyme conjugates (SDS-PAGE, RP-HPLC); type: physicochemical; conditions: for cleavage under reducing SDS-PAGE conditions: 2% β-mercaptoethanol, 10 minutes at 70° C.
Procedure: In a study performed in support of the invention, lysozyme was used as a model polypeptide. As described in Example 8, lysozyme was incubated with mPEG-MeDTB-nitrophenylcarbonate in 0.1 M borate, at pH 9, at a 2:1 ratio of nitrophenylcarbonate to amino group of lysozyme. After reactions times of 15 minutes and 3 hours, separate samples were characterized by SDS-PAGE. A comparative conjugate was prepared by reacting lysozyme under the same conditions for 60 minutes with mPEG-nitrophenyl carbonate, which will form a stable mPEG-lysozyme conjugate.
Lanes 6-9 of the gel correspond to the samples in Lanes 1-4, but under reducing SDS-PAGE conditions, after treatment with 2% β-mercaptoethanol for 10 minutes at 70° C. […] In contrast, the stable mPEG-lysozyme conjugate was not affected upon incubation with a reducing agent, as evidenced by the agreement in the profile in Lane 9 and Lane 4.
A similar study was done using cysteine as a reducing agent on a purified mPEG5000-MeDTB-lysozyme conjugate. The results of the SDS-PAGE profile are shown in FIG. 12B, where an mPEG-MeDTB-lysozyme conjugate (Lane 1) treated with 1 mM cysteine (Lane 2), 5 mM cysteine (Lane 3), and 50 mM cysteine (Lane 4) are shown. Also shown are an mPEG-lysozyme conjugate (no cleavable linkage) before (Lane 5) and after treatment (Lane 6) with 50 mM cysteine. Lysozyme before (Lane 7) and after (Lane 8) with 50 mM cysteine are also shown. Lane 9 corresponds to protein markers.
Example 8 describes the methodology of the reverse-phase HPLC analysis. The trace at the bottom of FIG. 13A corresponds to neat lysozyme.
Reverse-phase HPLC analysis. RP-HPLC separation of PEG-lysozyme conjugates was achieved on a Vydac™ Protein C4 (4.6×150 mm) column eluted at 1 ml/min with aqueous acetonitrile gradient as follows. Each chromatography run started with a mobile phase A (30% acetonitrile, 5% 0.1 M sodium acetate pH 5, and 65% H2O), and over a period of 40 min ended with a mobile phase B (50% acetonitrile, 50% 0.1 M sodium acetate pH 5). UV detector set at 280 nm was used to monitor the chromatography. SDS-PAGE. Polyacrylamide gel electrophoresis under denaturing conditions was performed for conjugates characterization. Pre-cast NuPAGE® Bis-Tris gels (4-15%), NuPAGE®MES running buffer, molecular weight protein standards (Mark 12™), and Colloidal Coomassie® G-250 staining kit, were all obtained from Invitrogen, Carlsbad, Calif. […] Aliquots were taken out from the reaction vial at various time points and analyzed by RP-HPLC as described above (see FIG. 13A). […] Purified PEG-DTB-lysozyme containing only one PEG moiety per lysozyme was treated with 1 mM cysteine while the reaction was monitored by LC-MS. […]

bacterial cell wall = assay: Bacterial cell wall lysis turbidometric assay of enzyme activity; type: biochemical; conditions: after treatment with 1 mM cysteine
[3] = Cleavage of mPEG-MeDTB-lysozyme in plasma (SDS-PAGE stained for PEG); type: in vitro ADME; conditions: plasma for 18 hours
Procedure: The samples were stained with iodine, for PEG visualization. Lane 1 corresponds to mPEG5000-MeDTB-lysozyme, Lane 2 corresponds to mPEG5000-MeDTB-lysozyme in cysteine buffer, Lane 3 corresponds to mPEG5000-MeDTB-lysozyme in plasma for 18 hours, Lane 4 corresponds to mPEG5000-MeDTB-lysozyme with 1,4-dithio-DL-threitol (DTT) added, Lane 5 is a plasma sample control, and Lane 6 is PEG molecular weight markers. […] Free PEG is liberated after treatment with low molecular weight thiol, such as DTT.

bovine serum albumin = bovine serum albumin (Bos taurus, UniProt P02769); assay: Cleavage of mPEG-DTB-lysozyme by albumin (SDS-PAGE stained for PEG); type: physicochemical; conditions: treated with bovine serum albumin
Source text: In another set of studies, it was shown that the thiol group of albumin was acting as the cleaving agent. Albumin is an abundant protein-thiol in plasma (Kratz, F. et al. J. Med. Chem., 45:5523 (2002)). The SDS-PAGE gel from this study is shown in FIG. 16B, where Lanes 1-12 were as follows:
The gel was stained for visibility of PEG. […] Lane 10 corresponds to mPEG-DTB-lysozyme treated with albumin and no spot on the gel corresponding to the mPEG-DTB-lysozyme conjugate is visible (compare to Lane 11), nor is a spot corresponding to released PEG visible (compare to Lane 4).

bovine serum albumin, sequence (P02769 25-607): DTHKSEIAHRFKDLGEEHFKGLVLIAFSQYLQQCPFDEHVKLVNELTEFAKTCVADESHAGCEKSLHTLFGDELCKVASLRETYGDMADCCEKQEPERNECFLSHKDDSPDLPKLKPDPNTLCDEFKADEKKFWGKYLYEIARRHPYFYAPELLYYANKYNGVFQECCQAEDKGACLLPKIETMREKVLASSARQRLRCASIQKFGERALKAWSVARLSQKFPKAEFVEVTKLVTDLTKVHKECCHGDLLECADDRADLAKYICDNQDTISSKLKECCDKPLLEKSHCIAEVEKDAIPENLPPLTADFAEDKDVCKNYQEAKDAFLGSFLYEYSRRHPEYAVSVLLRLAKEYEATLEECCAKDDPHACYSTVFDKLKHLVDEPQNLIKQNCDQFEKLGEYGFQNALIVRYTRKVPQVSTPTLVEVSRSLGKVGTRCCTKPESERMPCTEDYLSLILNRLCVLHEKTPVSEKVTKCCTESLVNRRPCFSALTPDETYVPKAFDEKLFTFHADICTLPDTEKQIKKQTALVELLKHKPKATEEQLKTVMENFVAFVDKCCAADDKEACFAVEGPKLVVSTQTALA

With PEG12000-MeDTB-lysozyme the T1/2α ([1]; intravenous) was 3.71 h, the T1/2β ([1]; intravenous) was 37.2 h and the “bioavailability (AUC)” value ([1]; subcutaneous) was “best bioavailability”.
PEG12000-lysozyme [reference compound] showed a T1/2α ([1]; intravenous) of 2.17 h and a T1/2β ([1]; intravenous) of 32.9 h.
With lysozyme: model polypeptide the T1/2α ([1]; intravenous) was 0.25 h, the T1/2β ([1]; intravenous) was 24.1 h and the blood concentration decrease ([1]; intravenous, within one hour after administration) was “more than 10 fold”.
In the case of mPEG5000-MeDTB-lysozyme, the “cleavage and release of lysozyme (RP-HPLC)” value ([2]; 1 mM cysteine, 30 minute time point) is reported as “near completion”, the “cleavage under reducing SDS-PAGE conditions” value [2] is reported as “decomposed to regenerate native lysozyme” and the “cleavage by cysteine (SDS-PAGE stained for PEG)” value ([2]; treated with cysteine) is reported as “cleaved in the presence of cysteine”. For the same substance, the “cell-lysing (enzymatic) activity after thiolysis” value (from here on “cell-lysing (enzymatic) activity”) (bacterial cell wall) was “nearly all”, the “cell-lysing (enzymatic) activity” value (bacterial cell wall; listed as mPEG-DTB-Lysozyme) was “Recovery of enzymatic activity” and the cleavage in plasma [3] was “cleaved in plasma”. The cleavage by albumin (bovine serum albumin) was “cleaved by the albumin”.
For mPEG-lysozyme [reference compound], the “cleavage under reducing SDS-PAGE conditions” value [2] was “not affected” and the “cell-lysing (enzymatic) activity” value (bacterial cell wall) was “remained inactive”.
